According to the RNAGym collection of RNA variant scans (doi:10.1073/pnas.2313332121):

B1: TPR t1 (parent)
chain: GACCAAUCUGCCCUCAGAGCUCGAGAACAUCUUCGGAUGCAGAGGAGGCAGGCUUCGGUGGCGCGAUAGCGCCAACGUCCUCAACCUCCAAUGCAUCCCACCACAUGAUGAUGCCUGAAGAGCCUUGGUUUUUUG

Variants of: B1
Assay: polymerase ribozyme fitness, log enrichment relative to wild type (log ratio); higher = more active; in vitro selection for triplet polymerase activity
How it was run: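 Fitness measures genotype enrichment against wild-type enrichment on a logarithmic scale, with inverse-variance-weighted averaging of replicates. The logarithm is base 2, and genotypes were kept only with ≥10 input reads and ≥1 read per output in Illumina sequencing. The sequenced libraries came from one triplicate in vitro selection round, including frozen incubation at −7 °C, of PCR-built, transcribed mutant libraries of each subunit of a heterodimeric triplet polymerase ribozyme.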

Variant	polymerase ribozyme fitness (log ratio)
A24G G69A C82A A95C G120A	-4.87
A26G G39U G69C C76U A95G G110A	-5.41
A24G G71A G127U	-5.42
G25A G47U A100U G110U U112A	-6.61
A26G C49U C73A	-2.93
A26U G61U	-3.08
G25A U96A	-5.41
A27C A50G G63U G110C U125G	-6.71
A27C C88G U129C	-4.24
A27C G42C G71U G120C U126A U130G	-6.82
A27C G45U U106C	-4.75
A26U C64U C82A G93A	-4.48
A24G C64U	-1.79
A26G G65A	-5.09
A26G C72U	-2.13
A26U G61A U116G A121G	-2.88
A26U A46C G63A G120U	-5
A26G C28U U87C A118U	-2.19
A24G G51U	-4.9
A26G C49G	-2.93
A26U G45A G77U	-3.48

Variant	polymerase ribozyme fitness (log ratio)
A24G C86G	-2.33
A24G C86U	-2.07
A26U C31G A43G C89A A121U	-7.24
A26G G60C C82A	-2.8
A26U C123A	-2.9
A27C C70U	-3.87
A24G C73U C88U C101U	-2.26
A24G C88A C115A	-1.84
A26U A50C U55G	-4.51
A26U C53G C73U A100U	-4.47
A24U G47A G110A C114A	-6.75
A26U A43G G48U C94G G110A	-6.66
A27C A118U	-2.67
A26U C86A G110A	-5.7
A26U U38A	-4.53
G25A G47A A100G U112G C123U	-6.98
A24G G42U U59G C88G	-5.92
A24U G47A G52A G61A C101G C114G G122A	-7.25
G25U A43C U78G A121G	-5.96
A26U A50U C124G	-2.5
A26C G61C U112G	-5.78

Variant	polymerase ribozyme fitness (log ratio)
A27C C94G	-3.57
A27C C94A	-3.32
A27C A68G G71U	-6.32
A26C C49A C123U	-4.69
A26G C82U C124A G127C U133C G135U	-4.09
A26U C70U C114U	-7.55
A27C G47U	-4.29
A26C G36A G61A	-5.9
A26G A84G C94A A95U	-4.63
A26U G36C G61U U81A U87C G120C	-4
A27C G39A C62A C124G	-4.04
A26C G36U A41U G120U U132A	-5.17
G25C G120A	-5.07
G25A C56U	-5.12
G25C G58A C64A A83C G110C	-6.43
A26C G69C G117C	-6.27
A26G U112A U125A	-1.55
G25U C31G U55G G71C C115A A119U G122A	-6.9
A24G C64U U96G A111C	-3.27
A26G G47A C72U G93C G113A	-6.9
G25C U32A G42C G45A G51C A111U	-8.24

Variant	polymerase ribozyme fitness (log ratio)
A27C G57C	-3.36
A26U A50C G58A	-4.45
G25C G61C U96C C98A U112G C123U	-6.63
G25C G47U C64G U109A U133C	-6.25
A26U G65A G93C C98U C123U	-6.78
A24G G120A	-0.603
A27C G44U C64U	-4.14
G25C G47A A103U C115G	-7.4
A24G G60A	-1.82
A26C U54G A103C A105U U112C	-6.86
A26U G61C U96A C114U G117A	-5.84
A24G G48A	-1.73
A26U G60C C86G	-4.99
G25C A111U	-6.92
A24G G61A A84U C85A	-2.08
G25A C72A	-5.51
G25A C72U	-5.57
A27C C72G U81C	-4.5
A26G A43U A50U C72A	-5.38
A26C C72U	-5.89
